From patent US20220017863A1 (H LEE MOFFITT CANCER CENTER AND RESEARCH INSTITUTE, published 2022)

Legend:
[1] = target: T1, phosphoglycerate kinase 1 (PGK1) (mouse, UniProt P09411 2-417); assay: co-IP/immunoblot and reverse co-IP/immunoblot, activated WT mouse CD3+ T cell extracts
T1 sequence (looked up): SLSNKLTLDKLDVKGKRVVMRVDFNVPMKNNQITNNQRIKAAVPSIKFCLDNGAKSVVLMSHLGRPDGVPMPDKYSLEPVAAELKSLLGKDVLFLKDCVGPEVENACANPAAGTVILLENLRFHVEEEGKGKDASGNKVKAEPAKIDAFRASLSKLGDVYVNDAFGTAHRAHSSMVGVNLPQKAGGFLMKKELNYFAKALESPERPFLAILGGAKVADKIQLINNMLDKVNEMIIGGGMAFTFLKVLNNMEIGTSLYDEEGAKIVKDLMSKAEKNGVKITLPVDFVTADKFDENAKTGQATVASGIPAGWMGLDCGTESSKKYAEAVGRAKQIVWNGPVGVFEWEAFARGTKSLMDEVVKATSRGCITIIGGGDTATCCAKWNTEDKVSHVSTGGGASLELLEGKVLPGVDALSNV

[2] = target: T2, phosphofructokinase P (PFKP) (mouse, UniProt Q9WUA3 1-784); assay: as above
T2 sequence (looked up): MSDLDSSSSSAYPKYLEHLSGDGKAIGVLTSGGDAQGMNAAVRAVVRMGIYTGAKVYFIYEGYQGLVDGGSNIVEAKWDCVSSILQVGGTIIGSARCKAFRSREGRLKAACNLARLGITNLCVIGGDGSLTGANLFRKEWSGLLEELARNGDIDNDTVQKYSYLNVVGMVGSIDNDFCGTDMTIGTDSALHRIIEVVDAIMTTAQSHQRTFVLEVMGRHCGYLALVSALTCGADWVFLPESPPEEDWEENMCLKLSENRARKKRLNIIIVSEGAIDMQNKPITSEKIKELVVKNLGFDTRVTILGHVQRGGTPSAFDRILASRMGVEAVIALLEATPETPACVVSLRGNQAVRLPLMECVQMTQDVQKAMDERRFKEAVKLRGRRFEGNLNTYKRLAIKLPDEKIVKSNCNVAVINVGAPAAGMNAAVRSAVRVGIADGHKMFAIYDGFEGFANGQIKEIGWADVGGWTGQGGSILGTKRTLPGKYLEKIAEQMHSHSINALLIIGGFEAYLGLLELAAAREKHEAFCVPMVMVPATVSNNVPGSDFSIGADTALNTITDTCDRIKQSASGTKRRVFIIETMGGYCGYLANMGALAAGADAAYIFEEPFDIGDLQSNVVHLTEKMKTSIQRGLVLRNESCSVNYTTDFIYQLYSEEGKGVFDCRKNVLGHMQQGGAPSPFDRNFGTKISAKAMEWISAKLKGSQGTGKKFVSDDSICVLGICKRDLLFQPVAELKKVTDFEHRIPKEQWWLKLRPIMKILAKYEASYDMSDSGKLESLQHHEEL

[3] = target: T3, alanine, serine, cysteine-preferring transporter 2 (ASCT2) (mouse, UniProt P51912 1-553); assay: IP of Sirt2, LC-MS/MS, activated WT mouse CD3+ T cell extracts
T3 construct: Endogenous protein in lysate; also called Glutamine transporter ASCT2; ACST2
T3 sequence (looked up): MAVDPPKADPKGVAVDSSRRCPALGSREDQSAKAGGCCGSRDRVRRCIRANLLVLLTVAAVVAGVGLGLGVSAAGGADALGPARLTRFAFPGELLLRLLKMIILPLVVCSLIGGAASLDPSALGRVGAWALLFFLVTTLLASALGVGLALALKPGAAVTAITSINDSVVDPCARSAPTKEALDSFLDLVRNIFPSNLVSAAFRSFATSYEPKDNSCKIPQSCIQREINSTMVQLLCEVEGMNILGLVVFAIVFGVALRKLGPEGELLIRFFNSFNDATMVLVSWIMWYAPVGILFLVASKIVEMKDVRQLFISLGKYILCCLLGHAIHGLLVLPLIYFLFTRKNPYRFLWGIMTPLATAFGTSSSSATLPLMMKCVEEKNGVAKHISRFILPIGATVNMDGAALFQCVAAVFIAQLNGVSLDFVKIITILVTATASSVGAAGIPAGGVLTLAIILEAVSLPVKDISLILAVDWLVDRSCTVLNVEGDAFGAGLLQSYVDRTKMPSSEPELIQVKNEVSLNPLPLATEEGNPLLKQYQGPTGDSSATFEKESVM

[4] = target: succinate dehydrogenase subunit alpha (SDHA) (mouse, UniProt Q8K2B3 43-664); assay: as above

Measured: binding result

succinate dehydrogenase subunit alpha (SDHA), sequence (Q8K2B3 43-664 limits assumed): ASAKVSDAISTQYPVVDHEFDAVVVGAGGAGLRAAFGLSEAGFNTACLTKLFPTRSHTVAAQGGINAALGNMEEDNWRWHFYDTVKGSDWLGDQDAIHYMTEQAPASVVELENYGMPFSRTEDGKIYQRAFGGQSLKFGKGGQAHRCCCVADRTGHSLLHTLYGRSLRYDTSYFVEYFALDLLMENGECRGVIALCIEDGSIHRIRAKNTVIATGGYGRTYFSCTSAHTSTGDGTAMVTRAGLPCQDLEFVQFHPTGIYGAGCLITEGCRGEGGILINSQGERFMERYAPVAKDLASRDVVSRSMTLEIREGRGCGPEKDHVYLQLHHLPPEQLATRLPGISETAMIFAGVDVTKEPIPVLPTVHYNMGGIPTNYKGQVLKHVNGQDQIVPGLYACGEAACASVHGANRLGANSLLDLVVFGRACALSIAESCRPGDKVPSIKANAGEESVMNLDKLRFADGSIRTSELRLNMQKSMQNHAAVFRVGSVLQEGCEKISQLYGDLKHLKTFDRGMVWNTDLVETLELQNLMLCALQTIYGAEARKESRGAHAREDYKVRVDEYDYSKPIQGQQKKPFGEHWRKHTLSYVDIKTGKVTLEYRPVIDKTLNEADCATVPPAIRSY

B1: Sirt2 (enzyme, mouse, UniProt Q8VDQ8 2-389, looked up)
chain: AEPDPSDPLETQAGKVQEAQDSDSDTEGGATGGEAEMDFLRNLFTQTLGLGSQKERLLDELTLEGVTRYMQSERCRKVICLVGAGISTSAGIPDFRSPSTGLYANLEKYHLPYPEAIFEISYFKKHPEPFFALAKELYPGQFKPTICHYFIRLLKEKGLLLRCYTQNIDTLERVAGLEPQDLVEAHGTFYTSHCVNTSCRKEYTMGWMKEKIFSEATPRCEQCQSVVKPDIVFFGENLPSRFFSCMQSDFSKVDLLIIMGTSLQVQPFASLISKAPLATPRLLINKEKTGQTDPFLGMMMGLGGGMDFDSKKAYRDVAWLGDCDQGCLALADLLGWKKELEDLVRREHANIDAQSGSQAPNPSTTISPGKSPPPAKEAARTKEKEEQQ
notes: Endogenous protein immunoprecipitated from T cell lysates with anti-Sirt2 (Sigma #9441); also called Sirtuin 2
binds: all assays above
